# Measurements reported in patent US20220048996A1.
# Columns and labels:
# [1] = target: hFcγR2b (R&D Systems 1460-CD-050/CF) (human) (UniProt P31994); assay: SPR, antibody 100 nM on OX40-his chip co-injected with FcγR 500 nM
# [2] = target: hFcγR1 (R&D Systems 1257-FC-050/CF) (human) (UniProt P12314); assay: as above
# [3] = target: hFcγR3a (R&D Systems 4325-FC-050/CF) (human) (UniProt P08637); assay: as above
# [4] = target: hFcγR2a (R&D Systems 1330-CD-050/CF) (human) (UniProt P12318); assay: as above
# hFcγR2a (R&D Systems 1330-CD-050/CF) (human), sequence (P12318 36-218 limits assumed): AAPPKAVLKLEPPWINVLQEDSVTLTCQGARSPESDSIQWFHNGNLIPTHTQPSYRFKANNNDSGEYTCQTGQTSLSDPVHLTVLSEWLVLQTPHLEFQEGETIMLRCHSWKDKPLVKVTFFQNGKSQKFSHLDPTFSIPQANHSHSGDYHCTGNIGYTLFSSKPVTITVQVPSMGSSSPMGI
# [5] = target: human OX40 expressed on DO11.10 cells (DO11.10-hOX40) (human) (UniProt P43489); assay: flow cytometry on DO11.10 cells expressing the target
# human OX40 expressed on DO11.10 cells (DO11.10-hOX40) (human), sequence (P43489 29-277): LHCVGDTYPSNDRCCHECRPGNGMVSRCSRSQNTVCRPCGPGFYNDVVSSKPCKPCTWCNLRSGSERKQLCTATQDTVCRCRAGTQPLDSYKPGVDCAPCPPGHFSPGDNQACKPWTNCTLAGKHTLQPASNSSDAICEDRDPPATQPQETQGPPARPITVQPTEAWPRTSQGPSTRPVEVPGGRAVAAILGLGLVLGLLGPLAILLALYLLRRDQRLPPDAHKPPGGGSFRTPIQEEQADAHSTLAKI
# [6] = target: cynomolgus OX40 expressed on DO11.10 cells (DO11.10-cOX40) (cynomolgus); assay: as above
# cynomolgus OX40 expressed on DO11.10 cells (DO11.10-cOX40) (cynomolgus), sequence (P43489 other isoform, or with tags, fused parts or gaps): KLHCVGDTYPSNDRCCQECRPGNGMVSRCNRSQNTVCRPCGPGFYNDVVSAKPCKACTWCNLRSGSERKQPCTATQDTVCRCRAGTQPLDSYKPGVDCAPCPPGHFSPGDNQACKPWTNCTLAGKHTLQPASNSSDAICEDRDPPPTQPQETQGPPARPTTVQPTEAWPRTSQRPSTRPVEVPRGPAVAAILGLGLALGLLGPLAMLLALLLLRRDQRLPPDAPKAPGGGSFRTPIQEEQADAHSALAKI
# [7] = target: human OX40 expressed on DO11.10 cells (DO11.10-hOX40) (human) (UniProt P43489); assay: cell-based or functional assay
# [8] = target: hOX40-mFc (human); assay: SPR, antibody captured via anti-human Fab, dimeric antigen flowed, 1:1 fit
# hOX40-mFc (human), sequence (chain, as listed by the source limits assumed): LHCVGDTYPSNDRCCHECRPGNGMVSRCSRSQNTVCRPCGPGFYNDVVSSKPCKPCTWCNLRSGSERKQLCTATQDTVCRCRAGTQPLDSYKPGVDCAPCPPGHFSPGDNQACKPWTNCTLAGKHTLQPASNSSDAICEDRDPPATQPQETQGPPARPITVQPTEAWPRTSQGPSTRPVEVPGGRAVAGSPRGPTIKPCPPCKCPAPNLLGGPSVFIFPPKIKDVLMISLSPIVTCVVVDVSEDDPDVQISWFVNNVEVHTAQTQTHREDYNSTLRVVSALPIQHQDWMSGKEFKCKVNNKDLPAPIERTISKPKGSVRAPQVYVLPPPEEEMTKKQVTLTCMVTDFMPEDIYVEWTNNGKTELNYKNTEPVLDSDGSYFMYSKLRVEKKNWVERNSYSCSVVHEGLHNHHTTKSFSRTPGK
# [9] = target: mouse CD137 expressed on DO11.10 cells (DO11.10-mCD137) (mouse) (UniProt P20334); assay: flow cytometry on DO11.10 cells expressing the target
# mouse CD137 expressed on DO11.10 cells (DO11.10-mCD137) (mouse), sequence (P20334 24-256): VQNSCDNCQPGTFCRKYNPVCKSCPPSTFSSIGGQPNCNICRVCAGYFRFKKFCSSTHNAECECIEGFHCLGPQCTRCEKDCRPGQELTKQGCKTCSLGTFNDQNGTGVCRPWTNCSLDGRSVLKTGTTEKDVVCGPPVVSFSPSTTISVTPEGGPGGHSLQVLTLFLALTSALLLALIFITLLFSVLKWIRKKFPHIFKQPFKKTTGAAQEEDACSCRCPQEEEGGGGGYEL
# [10] = target: human OX40 expressed on DO11.10 cells (DO11.10-hOX40) (human) (UniProt P43489); assay: flow cytometry on DO11.10-hOX40
# [11] = target: cynomolgus OX40 expressed on DO11.10 cells (DO11.10-cOX40) (cynomolgus); assay: flow cytometry on DO11.10-cOX40
# [12] = target: mouse CD137 expressed on DO11.10 cells (DO11.10-mCD137) (mouse) (UniProt P20334); assay: cell-based or functional assay
# [13] = target: hFcγR2b (R&D Systems 1460-CD-050/CF) (human) (UniProt P31994); assay: SPR, antibody 100 nM on CD137-his chip co-injected with FcγR 500 nM
# [14] = target: hFcγR1 (R&D Systems 1257-FC-050/CF) (human) (UniProt P12314); assay: as above
# [15] = target: hFcγR3a (R&D Systems 4325-FC-050/CF) (human) (UniProt P08637); assay: as above
# [16] = target: hFcγR2a (R&D Systems 1330-CD-050/CF) (human) (UniProt P12318); assay: as above
# hFcγR1 (R&D Systems 1257-FC-050/CF) (human), sequence (P12314 16-288 limits assumed): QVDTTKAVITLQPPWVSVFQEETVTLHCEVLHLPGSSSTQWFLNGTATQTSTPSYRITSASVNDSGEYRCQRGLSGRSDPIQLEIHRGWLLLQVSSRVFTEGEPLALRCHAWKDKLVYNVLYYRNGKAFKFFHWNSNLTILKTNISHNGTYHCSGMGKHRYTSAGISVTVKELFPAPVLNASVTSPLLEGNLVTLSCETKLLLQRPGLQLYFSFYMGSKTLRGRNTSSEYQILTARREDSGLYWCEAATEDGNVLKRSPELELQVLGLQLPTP
# hFcγR2b (R&D Systems 1460-CD-050/CF) (human), sequence (P31994 46-217 limits assumed): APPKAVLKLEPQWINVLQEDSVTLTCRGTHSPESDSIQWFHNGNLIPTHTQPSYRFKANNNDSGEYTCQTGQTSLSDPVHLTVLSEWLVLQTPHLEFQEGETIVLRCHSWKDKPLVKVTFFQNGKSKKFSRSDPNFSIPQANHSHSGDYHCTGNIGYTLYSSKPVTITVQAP
# hFcγR3a (R&D Systems 4325-FC-050/CF) (human), sequence (P08637 17-208 limits assumed): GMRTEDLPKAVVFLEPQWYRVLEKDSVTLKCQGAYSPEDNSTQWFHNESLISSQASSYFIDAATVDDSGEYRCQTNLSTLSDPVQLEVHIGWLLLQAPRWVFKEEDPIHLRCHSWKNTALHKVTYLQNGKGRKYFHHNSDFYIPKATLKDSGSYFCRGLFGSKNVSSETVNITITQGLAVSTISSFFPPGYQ
binding response at end of association phase of FcγR [1] [RU],binding response at end of association phase of FcγR [2] [RU],decrease of binding response at end of dissociation phase of FcγR [2] [RU],binding response at end of association phase of FcγR [3] [RU],binding response at end of association phase of FcγR [4] [RU],"SEA assay (PBMC), hIL-2 max response, crosslinked [7] [pg/mL]","SEA assay (PBMC), hIL-2 release EC50, crosslinked [7] [nM]","pan-T cell activation assay, hIL-2 max response, crosslinked [7] [pg/mL]","pan-T cell activation assay, hIL-2 release EC50, crosslinked [7] [nM]",Substance,further results
89.7,370,46.4,143,123,6610,0.13,6380,0.0513,G1/11D4 (antibody),EC50 [5]: 0.125 nM; EC50 [6]: 0.0941 nM; Kd [8]: 0.0337 nM
,,,,,,,,,G1/Lob12.3 (antibody),EC50 [9]: 0.121 nM
60.9,292,203,67.3,64.5,4270,0.0716,4130,0.13,G1AA/11D4 (antibody),"EC50 [10]: 0.814 nM; EC50 [11]: 0.213 nM; CD4+ T cell activation assay, hIL-2 max response, crosslinked [7]: 8820 pg/mL; CD4+ T cell activation assay, hIL-2 release EC50, crosslinked [7]: 0.0813 nM; CD8+ T cell activation assay, hIL-2 max response, crosslinked [7]: 388 pg/mL; CD8+ T cell activation assay, hIL-2 release EC50, crosslinked [7]: 0.0996 nM"
,,,,,,,,,G1AA/Lob12.3 (antibody),"mouse pan-T cell activation assay, mIL-2 max response, crosslinked [12]: 374 pg/mL; mouse pan-T cell activation assay, mIL-2 release EC50, crosslinked [12]: 1.18 nM"
,,,,,,,,,G4/20H4.9 (antibody),binding response at end of association phase of FcγR [13]: 164 RU; binding response at end of association phase of FcγR [14]: 693 RU; decrease of binding response at end of dissociation phase of FcγR [14]: 57.1 RU; binding response at end of association phase of FcγR [15]: 113 RU; binding response at end of association phase of FcγR [16]: 156 RU
